Here are results for three substances from article PMC5398546.

For assay [1], the target named is C-terminally truncated human A2AR (residues 1-317, N154A, C-terminal His10) (human) (UniProt P29274). In words: fluorescent saturation binding assay (FSBA); DDM-solubilised His-tagged β1AR or A2AR immobilised on Ni2+-coated 96-well plate; GFP-mini-Gs 0 to 2.8 μM, 90 min on ice; specific binding = agonist minus inverse agonist condition; apparent KD, one-site fit.
The target of assay [2] is wild-type human serotonin 5HT1B receptor (residues 34-390) with C-terminal His10 (human) (UniProt P28222). The assay is described as follows: fluorescent saturation binding assay (FSBA); DDM-solubilised donitriptan-bound His-tagged 5HT1BR immobilised on Ni2+-coated 96-well plate; GFP-mini-G protein 0 to 5 μM, 90 min on ice; specific binding = minus the GFP-mini-Gs condition; apparent KD, one-site fit.

pKd: −log10 of the molar value.

wild-type human serotonin 5HT1B receptor (residues 34-390) with C-terminal His10 (human), sequence (P28222 34-390): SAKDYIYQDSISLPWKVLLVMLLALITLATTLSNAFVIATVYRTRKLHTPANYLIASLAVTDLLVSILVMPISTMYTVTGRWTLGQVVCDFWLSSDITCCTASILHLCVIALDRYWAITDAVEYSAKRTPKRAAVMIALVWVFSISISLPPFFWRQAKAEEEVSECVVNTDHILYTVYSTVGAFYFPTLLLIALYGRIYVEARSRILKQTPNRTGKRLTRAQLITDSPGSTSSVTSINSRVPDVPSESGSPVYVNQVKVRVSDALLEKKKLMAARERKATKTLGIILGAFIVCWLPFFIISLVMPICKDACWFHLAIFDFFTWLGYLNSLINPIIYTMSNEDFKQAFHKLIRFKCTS
C-terminally truncated human A2AR (residues 1-317, N154A, C-terminal His10) (human), sequence (P29274 1-317 N154A): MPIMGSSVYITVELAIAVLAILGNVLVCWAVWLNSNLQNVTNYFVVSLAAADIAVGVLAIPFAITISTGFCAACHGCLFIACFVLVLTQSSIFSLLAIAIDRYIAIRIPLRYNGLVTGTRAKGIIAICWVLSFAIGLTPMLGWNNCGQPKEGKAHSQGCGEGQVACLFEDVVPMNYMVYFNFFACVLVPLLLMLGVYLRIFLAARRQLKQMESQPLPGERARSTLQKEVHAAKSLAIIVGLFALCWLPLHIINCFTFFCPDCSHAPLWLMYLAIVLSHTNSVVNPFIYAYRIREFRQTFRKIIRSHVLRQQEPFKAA

Broadly, the pKd is the negative decadic logarithm of the Kd, by convention in mol/L. As to GFP-mini-Gs (domain or fragment), the pKd in assay [1] was 6.37.

With “GFP-mini-Gs/i1 (construct 43) (domain or fragment)”, in assay [2], the pKd is 6.41.

Turning to “GFP-mini-Go1 (construct 12) (domain or fragment)”, the pKd in assay [2] was 6.74.
